# According to US20230357415A1 (AJOU UNIVERSITY INDUSTRY ACADEMIC COOPERATION FOUNDATION, published 2023):
# T1: sIL-5Rα antigen protein (Sinobio 10392-H08H) (Homo sapiens (Human), UniProt Q01344 21-342)
# T1 construct: Bought protein immobilised in the indirect ELISAs; also called soluble IL-5Rα; CD125
# T1 sequence: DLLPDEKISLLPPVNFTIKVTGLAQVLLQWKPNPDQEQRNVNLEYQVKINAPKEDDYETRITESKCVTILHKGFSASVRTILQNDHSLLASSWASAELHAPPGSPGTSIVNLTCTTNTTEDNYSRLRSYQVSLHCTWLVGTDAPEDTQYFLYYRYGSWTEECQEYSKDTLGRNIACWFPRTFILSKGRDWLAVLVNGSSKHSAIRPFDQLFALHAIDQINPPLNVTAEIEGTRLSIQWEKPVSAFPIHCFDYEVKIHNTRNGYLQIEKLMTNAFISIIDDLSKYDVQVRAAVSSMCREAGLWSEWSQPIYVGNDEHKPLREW
# Molecular target: T1, sIL-5Rα antigen protein (Sinobio …)
# Assay: indirect ELISA; plate-coated sIL-5Rα, antibody 100, 10, 1 nM, anti-human Fc-HRP, absorbance at 450 nm
# Procedure: After discarding the solution and washing the same three times with 0.1% PBST, an anti-human Fc-HRP antibody (1:8000) as a secondary antibody was added in an amount of 25 μl/well and reacted at room temperature for 1 hour.
binder,measurement,value
"4R34.1.19-SL-5R65 (bispecific antibody, human IgG1, kappa, The 4R34.1.19 variable regions are outermost and the 5R65 variable regions come second; also called 4R-SL-5R; DVD-IgG) light: QSVLTQPPSASGTPGQRVTISCSGSPLFPDSGSFNWYQQLPGTAPKLLIYADSHRPSGVPDRFSGSKSGTSASLAISGLRSEDEADYYCGTWDYSLSGYVLGGGTKLTVLGTVAAPDIQMTQSPSTLSASVGDRVTITCKASQNVGTAVAWYQQKPGKAPKLLIYWASTRHTGVPDRFSGSGSGTDFTLTISSLQPDDFATYYCQQFGRYPYTFGSGTKVEVKRTVAAPSVFIFPPSDEQLKSGTASVVCLLNNFYPREAKVQWKVDNALQSGNSQESVTEQDSKDSTYSLSSTLTLSKADYEKHKVYACEVTHQGLSSPVTKSFNRGEC heavy: not shown",binding result,binds
